In the supplement of paper PMC6757056:
± gives the standard deviation of the averaged measurements.

B1: library; a variant is named by its letters at N, in order (parent)
chain: GCUGUCACCGAGAAACUGUGAAGUAUAUCUUAAACCUGGGCACUUAAAAGAUAUAUGGAGUUAGUAGUGCAACCUGCUCGGUCUGAUGAGUCCNNNNNNGGACGAAACAGC

Experiments:
cyclic di-GMP [1] = variants of: B1; assay: FACS-Seq fitted mean relative fluorescence mCherry/BFP without ligand (log10 relative fluorescence); HEK293T; ligand: cyclic di-GMP (c-di-GMP-II aptamer); higher = higher reporter protein expression; conditions: ligand present: no
Procedure, shortened: (§1)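 Enriched HEK293T cells carrying, by lentivirus, an mCherry reporter with the ribozyme switch and an EF1α-BFP marker spent 48 h with or without ligand and were sorted into 6 bins by mCherry/BFP. MiSeq sequencing of PCR-amplified bin genomic DNA gave bin counts. Fluorescence was calculated as the fitted normal mean of those counts. Counts were binned on log10(mCherry/BFP), and means were scaled to five spiked-in control ribozymes.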

cyclic di-GMP [2] = variants of: B1; assay: normalized RNA/DNA level without ligand (relative to sTRSVctl = 100) (log10 (% of sTRSVctl)); HEK293T; ligand: cyclic di-GMP (c-di-GMP-II aptamer); higher = less ribozyme self-cleavage, higher mRNA level; conditions: reporter: mCherry (pCS4076), ligand present: no
Procedure, shortened: (§2)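 HEK293T cells received ligand, where used, 1 h before being transfected with 4 µg per 6-well well of library plasmids encoding reporter-linked ribozyme switches. After 72 h, RNA was extracted with EDTA and sequenced. RNA level was derived from RNA reads per DNA read, normalized to a spiked-in non-cleaving sequence or the top sequences, then scaled and log-transformed. Values were ×100 then log10, the top set was 25 sequences, and the minimum was 100 DNA reads.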

cyclic di-GMP [3] = variants of: B1; assay: FACS-Seq fitted mean relative fluorescence mCherry/BFP with ligand (log10 relative fluorescence); HEK293T; ligand: cyclic di-GMP (c-di-GMP-II aptamer); ligand concentration (+) FACS-Seq: 1 mM; higher = higher reporter protein expression; conditions: ligand present: yes
Procedure, shortened: as §1

cyclic di-GMP [4] = variants of: B1; assay: normalized RNA/DNA level with ligand (relative to sTRSVctl = 100) (log10 (% of sTRSVctl)); HEK293T; ligand: cyclic di-GMP (c-di-GMP-II aptamer); ligand concentration (+) RNA-Seq: 1 mM; higher = less ribozyme self-cleavage, higher mRNA level; conditions: reporter: mCherry (pCS4076), ligand present: yes
Procedure, shortened: as §2

Variant | FACS-Seq fitted mean (log10) (cyclic di-GMP [1]) | normalized RNA/DNA level without ligand (log10) (cyclic di-GMP [2]) | FACS-Seq fitted mean (log10) (cyclic di-GMP [3]) | normalized RNA/DNA level with ligand (log10) (cyclic di-GMP [4])
GGUAUC | -0.466 ± 0.023 | 1.63 ± 0.018 | -0.193 ± 0.022 | 1.79 ± 0.12
UGGGAA | -0.259 ± 0.11 | 1.57 ± 0.12 | -0.113 ± 0.048 | 1.77 ± 0.089
CGGUUA | -0.67 ± 0.04 | 1.27 ± 0.12 | -0.411 ± 0.028 | 1.43 ± 0.091
AGGAGA | -0.574 ± 0.012 | 1.37 ± 0.12 | -0.304 ± 0.011 | 1.48 ± 0.025
CGUAUA | -0.76 ± 0.11 | 1.3 ± 0.1 | -0.4664 ± 0.0033 | 1.45 ± 0.13
CGCUCU | -0.865 ± 0.06 | 1.54 ± 0.049 | -0.64 ± 0.039 | 1.73 ± 0.1
CGUACA | -0.654 ± 0.072 | 1.32 ± 0.032 | -0.354 ± 0.046 | 1.53 ± 0.12
CGUACU | -0.584 ± 0.039 | 1.43 ± 0.087 | -0.327 ± 0.022 | 1.66 ± 0.12
UGUAUA | -0.0844 ± 0.055 | 1.73 ± 0.083 | 0.221 ± 0.027 | 1.87 ± 0.073
CGUCCU | -0.313 ± 0.09 | 1.6 ± 0.033 | 0.0379 ± 0.021 | 1.78 ± 0.12
CGGGAG | -0.586 ± 0.063 | 1.68 ± 0.017 | -0.113 ± 0.0022 | 1.79 ± 0.064
CGGGAA | -0.636 ± 0.012 | 1.33 ± 0.033 | -0.472 ± 0.015 | 1.36 ± 0.081
UGCGUU | -0.0716 ± 0.19 | 1.691 ± 0.0015 | 0.15 ± 0.093 | 1.9 ± 0.096
CGUUAA | -0.684 ± 0.057 | 1.22 ± 0.036 | -0.425 ± 0.019 | 1.4 ± 0.14
CGUUAU | -0.444 ± 0.047 | 1.42 ± 0.13 | -0.148 ± 0.06 | 1.61 ± 0.081
CGGAGC | 0.169 ± 0.11 | 1.61 ± 0.052 | 0.426 ± 0.022 | 1.79 ± 0.065
UGUACC | 0.263 ± 0.21 | 1.79 ± 0.068 | 0.4414 ± 0.00076 | 1.9 ± 0.13
UGUACU | -0.0524 ± 0.051 | 1.76 ± 0.05 | 0.296 ± 0.04 | 1.87 ± 0.094
